# Measured values published in the RNAGym collection of RNA variant scans (doi:10.1093/nar/gkz1192).
# B1: CPEB3 Ribozyme (parent)
# chain: UAACAGGGGGCCACAGCAGAAGCGUUCACGUCGCAGCCCCUGUCAGAUUCUGGUGAAUCUGCGAAUUCUGCUGUAUAUCUC
# Variants of: B1
# Assay: self-cleavage, relative activity (ratio to wild type); higher = more cleavage; in vitro, sequencing
# In short: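 Libraries of CPEB3 self-cleaving ribozyme mutants came from rounds of error-prone PCR and carried barcodes, which DNA sequencing matched to variants. In vitro transcription used T7 RNA polymerase at 37°C for 5 hours, with a further 15 min in DNase I before EDTA stopped the reaction; the ribozymes cleaved during both steps. The RNA was reverse transcribed with template switching and sequenced on Illumina. Relative activity is the cleaved/total read fraction of a variant divided by that of the unmutated ribozyme, averaged over three batches with at least 5 reads.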
row,Variant,self-cleavage
1,UAACAGGUGGCCACAGCAGAAGCGUUCACGUCGCAGCCCCUGUCAGACUCUGGUGAAUCUGCGAAUUCUGCUGUAUAUCUC [G8U U48C],0.38
2,UAACAGGUGGCCACAGCAGAAGCGUUCACGUCGCAACCCCUGUCAGAUUCUGGUGAAUCUGCGAAUUCUGCUGUAUAUCUC [G8U G36A],0.1
3,UAACAGGUGGCCACAGCAGAAGCGUUCAUGUCGCAGCCCCUGUCAGAUUCUGGUGAAUCUGCGAAUUCUGCUGUAUAUCUC [G8U C29U],0.25
4,UAACAGGUGGCCACAGCAGAAGCGUUCACGUCGCAGCCCCUGUCAGAUCCUGGUGAAUCUGCGAAUUCUGCUGUAUAUCUC [G8U U49C],0.22
5,UAACAGGUGGCCACAGCAGAAGCGUUCACGUCGCAGCCCCUGUCAGAUACUGGUGAAUCUGCGAAUUCUGCUGUAUAUCUC [G8U U49A],0.28
6,UAACAGGUGGCCACAGCAGAAGCGUUCACGUCGCAGCCCCUGUCAGAUUCUGGCGAAUCUGCGAAUUCUGCUGUAUAUCUC [G8U U54C],0.14
7,UAACAGGUGGCCACAGCAGAAGCGUUCACGUCGCAGCCCCUGUCAGAUUCUGGAGAAUCUGCGAAUUCUGCUGUAUAUCUC [G8U U54A],0.07
8,UAACAGGUGGCCACAGCAGAAGCGUUCACGUCGCAGCCCCGGUCAGAUUCUGGUGAAUCUGCGAAUUCUGCUGUAUAUCUC [G8U U41G],0.39
9,UAACAGGUGGCCACAGCAGAAGCGUUCACGUCGCAGCCCCCGUCAGAUUCUGGUGAAUCUGCGAAUUCUGCUGUAUAUCUC [G8U U41C],0.12
10,UAACAGGUGGCCACAGCAGAAGCGUUCACGUCGCAGCCCCAGUCAGAUUCUGGUGAAUCUGCGAAUUCUGCUGUAUAUCUC [G8U U41A],0.19
11,UAACAGGUGGCCACAGCAGAAGCGUUCACGUCGCAGCCCCUGUCAGAUUCUGGUGAAUCUGCGAAUACUGCUGUAUAUCUC [G8U U67A],0.19
12,UAACAGGUGGCCACAGCAGAAGCGUUCACGUCGCAGCCCCUGUCAGAUUCUGGUGAAUCUGCGAAUCCUGCUGUAUAUCUC [G8U U67C],0.23
13,UAACAGGUGGCCACAGCAGAAGCGUUCACGUCGCAGCCCCUGUCAGAUUCUGGUGAAUCUGCAAAUUCUGCUGUAUAUCUC [G8U G63A],0.07
14,UAACAGGUGGCCACAGCAGAAGCGUUCACGUCGCAGCCCCUGUCAGAUUCUGGUGAAUCUGCGAUUUCUGCUGUAUAUCUC [G8U A65U],0.43
15,UAACAGGUGGCCACAGCAGAAGCGUUCACGUCGCAGCCCCUGUCAGAUUCUGGUGAAUCUGCGAGUUCUGCUGUAUAUCUC [G8U A65G],0.34
16,UAACAGGUGGCUACAGCAGAAGCGUUCACGUCGCAGCCCCUGUCAGAUUCUGGUGAAUCUGCGAAUUCUGCUGUAUAUCUC [G8U C12U],0.3
17,UAACAGGUGGCCACAGCAGAAGCGUUCACGCCGCAGCCCCUGUCAGAUUCUGGUGAAUCUGCGAAUUCUGCUGUAUAUCUC [G8U U31C],0.11

row,Variant,self-cleavage
1,UAACAGGUGGCCACAGCAGAAGCGUUCACGACGCAGCCCCUGUCAGAUUCUGGUGAAUCUGCGAAUUCUGCUGUAUAUCUC [G8U U31A],0.18
2,UAACAGGUGGCCACAGCAGAAGCGUUCACGUCGCAGCCCCUGUCAGAUUCUGGUGAAUCUGCGAAGUCUGCUGUAUAUCUC [G8U U66G],0.13
3,UAACAGGUGGCCACAGCAGAAGCGUUCACGUCGCAGCCCCUGUCAGAUUCUGGUGAAUCUGCGAAUUCUGGUGUAUAUCUC [G8U C71G],0.07
4,UAACAGGUGGCCACAGCAGAAGCGUUCACGUCGCAGCCCCUGUCAGAUUCUGGUGAAUUUGCGAAUUCUGCUGUAUAUCUC [G8U C59U],0.1
5,UAACAGGUGGCCACAGCAGAAGCGUUCACGUCGCAGCCCCUGUCAUAUUCUGGUGAAUCUGCGAAUUCUGCUGUAUAUCUC [G8U G46U],0.19
6,UAACAGGUGGCCACAGCAGAAGCUUUCACGUCGCAGCCCCUGUCAGAUUCUGGUGAAUCUGCGAAUUCUGCUGUAUAUCUC [G8U G24U],0.13
7,UAACAGGUGGCCACAGCAGAAGCAUUCACGUCGCAGCCCCUGUCAGAUUCUGGUGAAUCUGCGAAUUCUGCUGUAUAUCUC [G8U G24A],0.16
8,UAACAGGUGGCCACAGCAGAAGCGUUCACGUCGCAGCCCCUGUCAGAUUCUUGUGAAUCUGCGAAUUCUGCUGUAUAUCUC [G8U G52U],0.21
9,UAACAGGUGGCCACAGCAGAAGCGUUCACGUCGCAGCCCCUGUCAGAUUCUAGUGAAUCUGCGAAUUCUGCUGUAUAUCUC [G8U G52A],0.21
10,UAACAGGUGGCCACAGCAGAAGCGUUCACGUCGCAGUCCCUGUCAGAUUCUGGUGAAUCUGCGAAUUCUGCUGUAUAUCUC [G8U C37U],0.17
11,UAACAGGUGGCCACAGCAGAAGCGUUCACGUCGCAGCCCCUGUCAGAUUCUGGUGAAUCUGCGAAUUCUGCUGUAUAUUUC [G8U C79U],0.04
12,UAACAGGUGGCCACAGCAGAAGCGUUCACGUCGCAGCCCCUGUCAGAUUCCGGUGAAUCUGCGAAUUCUGCUGUAUAUCUC [G8U U51C],0.08
13,UAACAGGUGGCCACAGCAGAAGCGUUCACGUCGCAGCCCCUGUCAGAUUCAGGUGAAUCUGCGAAUUCUGCUGUAUAUCUC [G8U U51A],0.08
14,UAACAGGUGGCCACAGCAGAAGCGUUCACGUCGCAGCCCCUGUCAGAUUCUGGUGAAUCUGUGAAUUCUGCUGUAUAUCUC [G8U C62U],0.12
15,UAACAGGUGGCCACAGCAGAAGCGUUCACGUCGCAGCCCCUGUCAGAUUCUGGUGAAUCUGCGAAUUCUGCUGUAUUUCUC [G8U A77U],0.14
16,UAACAGGUGGUCACAGCAGAAGCGUUCACGUCGCAGCCCCUGUCAGAUUCUGGUGAAUCUGCGAAUUCUGCUGUAUAUCUC [G8U C11U],0.1
17,UAACAGGUGGCCACAGCAGAAGCGUACACGUCGCAGCCCCUGUCAGAUUCUGGUGAAUCUGCGAAUUCUGCUGUAUAUCUC [G8U U26A],0.07
